Results reported in patent US20150344535A1, “NEUROTROPHIN-TYROSINE KINASE RECEPTOR SIGNALING” (THE UNIVERSITY OF QUEENSLAND, priority 2012, published 2015).

Columns and labels:
[1] = biological target: TrkA endogenously expressed in PC12 cells (UniProt P35739); assay: cell-based or functional assay
TrkAK538A = assay: cell-based or functional assay

Sequence of TrkA endogenously expressed in PC12 cells (P35739 33-799 limits assumed): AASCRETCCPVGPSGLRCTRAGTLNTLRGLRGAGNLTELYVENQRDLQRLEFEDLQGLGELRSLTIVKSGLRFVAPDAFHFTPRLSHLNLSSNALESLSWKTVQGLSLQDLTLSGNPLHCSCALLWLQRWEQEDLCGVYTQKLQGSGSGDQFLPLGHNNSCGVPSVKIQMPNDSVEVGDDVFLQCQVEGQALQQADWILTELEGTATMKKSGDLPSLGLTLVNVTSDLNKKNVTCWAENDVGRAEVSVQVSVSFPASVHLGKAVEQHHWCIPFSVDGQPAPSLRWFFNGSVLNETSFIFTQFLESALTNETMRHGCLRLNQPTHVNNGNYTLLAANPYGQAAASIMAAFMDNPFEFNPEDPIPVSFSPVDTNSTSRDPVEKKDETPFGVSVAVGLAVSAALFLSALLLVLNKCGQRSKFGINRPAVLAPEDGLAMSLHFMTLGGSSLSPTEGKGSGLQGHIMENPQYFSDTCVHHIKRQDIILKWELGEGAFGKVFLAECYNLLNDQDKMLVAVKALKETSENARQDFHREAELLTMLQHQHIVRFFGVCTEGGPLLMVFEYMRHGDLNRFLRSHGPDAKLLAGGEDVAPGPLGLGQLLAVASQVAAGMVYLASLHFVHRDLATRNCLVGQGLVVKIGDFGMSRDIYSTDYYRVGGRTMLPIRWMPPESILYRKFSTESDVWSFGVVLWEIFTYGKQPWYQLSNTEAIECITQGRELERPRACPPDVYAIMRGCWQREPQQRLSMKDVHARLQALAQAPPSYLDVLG

p75^ICD-YFP (from UniProt P08138 273-427) (receptor)
neurite outgrowth of PC12 cells overexpressing the construct, 100 ng/ml NGF, 5 days [1]: 60%
neurite outgrowth of PC12 cells co-expressing p75^ICD and TrkAK538A after NGF treatment (TrkAK538A): 10 to 40 µm
